Experimental data reported in patent US20240117056A1 (IBIO, published 2024).

Assays:
[1] = biological target: T1, human EGFRvIII overexpressed on cells (F98npEGFRvIII, U87MG-EGFRvIII, FaDu-EGFRvIII) (human, UniProt P00533 25-1210); assay: flow cytometry, FaDu-EGFRvIII cells, n=3
T1 construct: whole, on cells; the vIII deletion must be applied; also called F98 EGFRvIII

[2] = biological target: T1, human EGFRvIII overexpressed on cells …; assay: flow cytometry, U87MG-EGFRvIII cells, n=3
[3] = biological target: T1, human EGFRvIII overexpressed on cells …; assay: cell-based or functional assay
[4] = biological target: T2, human EGFR, purified recombinant protein (Acro Biosystems Cat #EGR-H5222) (human, UniProt P00533 25-645); assay: SPR (Carterra LSA), antibody captured on anti-human IgG, EGFR1 injected in a 5-fold series from 500 nM
T2 construct: Bought protein; also called EGFR1; full length human EGFR1

[5] = biological target: T3, human EGFRvIII, purified recombinant protein (Acro Biosystems Cat #EGI-H52H4) (human, UniProt P00533 25-645); assay: ELISA, antigen coated at 1 ug/mL, anti-human IgG-HRP, n=3
T3 construct: Bought protein; the deletion must be applied; also called truncated human EGFRvIII; huEGFRvIII

[6] = biological target: T4, wild type human EGFR1 on cells (F98 EGFR1; wild type U87MG; wild type FaDu) (human, UniProt P00533 25-1210); assay: flow cytometry on wild type U87MG cells, anti-human IgG Fc Alexa Fluor 647, MFI
T4 construct: whole, on cells

[7] = biological target: T3, human EGFRvIII, purified recombinant …; assay: SPR (Carterra LSA), antibody captured on anti-human IgG, antigen injected, 1:1 Langmuir fit;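 further: EGFRvIII injected at five concentrations, fivefold serial dilution starting 500 nM, 5 min association then 15 min dissociation, double-referenced against interspot and buffer blank signals, global kinetic fit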
[8] = biological target: T1, human EGFRvIII overexpressed on cells …; assay: cell-based or functional assay; remark: listed apart in the source
[9] = biological target: T2, human EGFR, purified recombinant …; assay: ELISA, plate coated with human EGFR1, anti-human IgG-HRP, OD450

Row | EC50 [1] [nM] | EC50 [2] [nM] | ADCC EC50 (nM), FaDu-EGFRvIII cells with PBMC [3] [nM] | binding result [4] | EC50 [5] [nM] | binding result [6] | Kd [7] [nM] | koff [7] [s⁻¹] | kon [7] [M⁻¹ s⁻¹] | ADCC EC50 (nM), U87MG-EGFRvIII cells with PBMC [8] [nM] | binding result [9] | Binder
1 | 5.27 | 6.05 | 0.0051 | no binding | 0.156 | no binding | 57 | 0.0024 | 42000 | 0.0047 |  | SD-127612-afuc (antibody, V domains shown, afucosylated (FUT8 knock-out CHO)) VH: QVQLVQSGAEVKKPGASVKVSCKASGYTFTSYDINWVRQAPGQRLEWMGWIFPGDGTSKYNEKFKGRVTITRDTSASTAYMELSSLRSEDTAVYYCARRLGSHWGQGTLVTVSS VL: DIVLTQSPDSLAVSPGERATISCKASQSVDSDGDSYMNWYQQKPGQPPKLLIYGASNLESGVPDRFSGSGSGTDFTLTISRVEAEDVAVYYCQQSHEYPFTFGGGTKLEIK
2 | 3.86 | 4.33 | 0.0033 |  | 0.129 | no binding | 33 | 0.0017 | 51000 | 0.0066 | no binding | SD-649072-afuc (antibody, V domains shown, afucosylated (FUT8 knock-out CHO)) VH: QVQLVQSGAEVKKPGASVKVSCKASGYTFTSYDINWVRQAPGQRLEWMGWIFPGDGTSKYNEKFKGRVTITRDTSASTAYMELSSLRSEDTAVYYCARRLGTVWGQGTLVTVSS VL: DIVLTQSPASLAVSPGQRATITCKASQSVDSDGDSYMNWYQQKPGQPPKLLIYGASNLESGVPARFSGSGSGTDFTLTINPVEANDTANYYCQQSHEYPFTFGQGTKLEIK
